Experiment [1] concerns the target cynomolgus monkey CCR8 (comprising threonine at position four) (cynomolgus monkey). The experiment in a line: KinExA, 293T cells expressing cynomolgus CCR8. (In general: A kinetic exclusion assay measures how much of one partner remains free in solution.)
Experiment [2] has the same target. Briefly: flow cytometry, primary cynomolgus Tregs (PBMC, CD4+CD25+CD127- gate).

Several values for one entry are separate records, joined by “and”; a condition that tells them apart may be missing. Equal entries are not always repeated. Some results are limits rather than exact numbers.

For orientation: Kd means the concentration at which binding is half-saturated.

Chain of cynomolgus monkey CCR8 (comprising threonine at position four) (cynomolgus monkey) (O97665 other isoform, or with tags, fused parts or gaps): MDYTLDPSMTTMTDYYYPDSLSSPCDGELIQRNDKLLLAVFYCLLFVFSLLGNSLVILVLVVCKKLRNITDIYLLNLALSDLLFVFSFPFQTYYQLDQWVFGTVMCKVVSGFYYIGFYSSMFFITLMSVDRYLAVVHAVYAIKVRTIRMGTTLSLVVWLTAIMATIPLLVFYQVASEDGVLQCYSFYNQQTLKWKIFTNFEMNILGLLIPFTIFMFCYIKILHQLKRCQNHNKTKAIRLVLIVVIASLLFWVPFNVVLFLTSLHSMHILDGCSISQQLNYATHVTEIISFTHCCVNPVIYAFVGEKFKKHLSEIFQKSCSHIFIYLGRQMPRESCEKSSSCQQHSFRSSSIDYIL

B1: Antibody 2 IgG2 (antibody, V domains shown)
VH: QVQLVESGGGVVQPGRSLRLSCAASGFTFSNYGMHWVRQAPGKGLEWVAVISYDGSNKFYADSVKGRFTISRDNSKKTLYLQMSSLRVEDTAVYYCARAGGIGRFDYWGQGTLVTVSS
VL: DFVMTQTPLSLSVTPGQPASISCKYSQSLLHSDGKTYLFWYLQKPGQPPHLLIYEVSNRFSGVPDRFSGSGSGTDFTLKISRVEAEDVGLYYCMQTLKLPLTFGGGTKVEINR
On to B1, for which the Kd in experiment [1] was above 50 nM. In addition, the CCR8+CD127-CD25+CD4, % positive in experiment [2] is 8.5% and 17.9%.

(Values after patent publication US20250171549A1.)
